T1: FcγRIIb extracellular domain with C-terminal His tag (human, UniProt P31994 43-217)
T1 construct: extracellular domain; Soluble receptor expressed in FreeStyle293 cells and used as analyte in Biacore; also called FcgRIIb; 2b; not shown: His tag attached to the C terminus
T1 sequence (looked up): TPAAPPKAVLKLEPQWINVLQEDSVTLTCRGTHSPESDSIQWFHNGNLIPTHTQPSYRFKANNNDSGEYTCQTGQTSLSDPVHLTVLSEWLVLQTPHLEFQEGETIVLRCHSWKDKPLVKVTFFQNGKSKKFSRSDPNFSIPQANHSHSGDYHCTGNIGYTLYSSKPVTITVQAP


What was measured:
[1] = target: T2, FcγRIIIa extracellular domain with C-terminal His tag (human, UniProt P08637 17-208); assay: SPR (Biacore); He/Con_3a divided by He/Con_2b (FcγRIIIa over FcγRIIb)
T2 construct: extracellular domain; also called FcgRIIIa; 3a; not shown: His tag attached to the C terminus
Experimental: (§1) The heterodimerized antibodies He Abs in which one of the H chains was introduced with an alteration were assayed for their binding activities to each activating FcγR and inhibitory FcγR according to the method described in Example 4. […] The activating FcγRs in FIGS. 26, 27, 28, and 29 are FcγRIa, FcγRIIa (R), FcγRIIa (H), and FcγRIIIa, respectively.
(§2) Analysis of interaction between objective antibody and the FcγR was carried out using Biacore T100 (GE Healthcare). HBS-EP+ (GE Healthcare) was used as the running buffer, and the measurement temperature was set to 25° C. Chips produced by immobilizing the antigen peptide by the amine coupling method to a Series S Sencor Chip CM5 (GE Healthcare), or alternatively, chips produced by allowing preliminarily biotinylated antigen peptides to interact with and immobilize onto a Series S Sensor Chip SA (certified) (GE Healthcare) were used. Antibodies of interest were captured onto an antigen peptide-immobilized chip, and allowed to interact to each FcγR diluted with running buffer. To regenerate and repeatedly use the chip, the antibodies captured on the chip were washed off by reacting 10 mM glycine-HCl, pH 1.5.

[2] = target: T1, FcγRIIb extracellular domain with …; assay: SPR (Biacore), antibody captured, FcγR as analyte; binding activity relative to control heterodimerized antibody
Experimental: as §1, §2

[3] = target: T2, FcγRIIIa extracellular domain with …; assay: as above
Experimental: as §1, §2

T2 sequence (P08637 17-208): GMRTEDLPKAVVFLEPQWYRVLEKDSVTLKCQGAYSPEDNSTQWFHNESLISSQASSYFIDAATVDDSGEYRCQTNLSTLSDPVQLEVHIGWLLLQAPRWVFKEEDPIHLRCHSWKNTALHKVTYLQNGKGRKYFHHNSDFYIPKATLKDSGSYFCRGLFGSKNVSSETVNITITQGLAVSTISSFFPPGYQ

He_3a/2b [1] [ratio] | He/Con_2b [2] | He/Con_3a [3] | Binder
1.26 | 30.5 % of GpH7-A5/GpH7-B3/GpL16-k0 (=100) | 38.5 % of GpH7-A5/GpH7-B3/GpL16-k0 (=100) | GpH7-A5/GpH7-B3 variant D270_01G/GpL16-k0 (antibody, human IgG1, kappa, Heterodimerized anti-glypican-3 IgG1 with the alteration in only one H chain; also called He Ab) heavy 1: not shown heavy 2: not shown light: DIVMTQSPLSLPVTPGEPASISCQASESLVHSNRNTYLHWYLQKPGQSPQLLIYKVSNRFSGVPDRFSGSGSGTDFTLKISRVEAEDVGVYYCSQNTHVPPTFGQGTKVEIERTVAAPSVFIFPPSDEQLKSGTASVVCLLNNFYPREAKVQWKVDNALQSGNSQESVTEQDSKDSTYSLSSTLTLSKADYEKHKVYACEVTHQGLSSPVTKSFNRGEC
1.7 | 48 % of GpH7-A5/GpH7-B3/GpL16-k0 (=100) | 81.9 % of GpH7-A5/GpH7-B3/GpL16-k0 (=100) | GpH7-A5/GpH7-B3 variant D270_19Q/GpL16-k0 (antibody, human IgG1, kappa, Heterodimerized anti-glypican-3 IgG1 with the alteration in only one H chain; also called He Ab) heavy 1: not shown heavy 2: not shown light: DIVMTQSPLSLPVTPGEPASISCQASESLVHSNRNTYLHWYLQKPGQSPQLLIYKVSNRFSGVPDRFSGSGSGTDFTLKISRVEAEDVGVYYCSQNTHVPPTFGQGTKVEIERTVAAPSVFIFPPSDEQLKSGTASVVCLLNNFYPREAKVQWKVDNALQSGNSQESVTEQDSKDSTYSLSSTLTLSKADYEKHKVYACEVTHQGLSSPVTKSFNRGEC
1.28 | 44.2 % of GpH7-A5/GpH7-B3/GpL16-k0 (=100) | 56.7 % of GpH7-A5/GpH7-B3/GpL16-k0 (=100) | GpH7-A5/GpH7-B3 variant D270_13S/GpL16-k0 (antibody, human IgG1, kappa, Heterodimerized anti-glypican-3 IgG1 with the alteration in only one H chain; also called He Ab) heavy 1: not shown heavy 2: not shown light: DIVMTQSPLSLPVTPGEPASISCQASESLVHSNRNTYLHWYLQKPGQSPQLLIYKVSNRFSGVPDRFSGSGSGTDFTLKISRVEAEDVGVYYCSQNTHVPPTFGQGTKVEIERTVAAPSVFIFPPSDEQLKSGTASVVCLLNNFYPREAKVQWKVDNALQSGNSQESVTEQDSKDSTYSLSSTLTLSKADYEKHKVYACEVTHQGLSSPVTKSFNRGEC
1.61 | 76.5 % of GpH7-A5/GpH7-B3/GpL16-k0 (=100) | 123 % of GpH7-A5/GpH7-B3/GpL16-k0 (=100) | GpH7-A5/GpH7-B3 variant D270_10E/GpL16-k0 (antibody, human IgG1, kappa, Heterodimerized anti-glypican-3 IgG1 with the alteration in only one H chain; also called He Ab) heavy 1: not shown heavy 2: not shown light: DIVMTQSPLSLPVTPGEPASISCQASESLVHSNRNTYLHWYLQKPGQSPQLLIYKVSNRFSGVPDRFSGSGSGTDFTLKISRVEAEDVGVYYCSQNTHVPPTFGQGTKVEIERTVAAPSVFIFPPSDEQLKSGTASVVCLLNNFYPREAKVQWKVDNALQSGNSQESVTEQDSKDSTYSLSSTLTLSKADYEKHKVYACEVTHQGLSSPVTKSFNRGEC
2.02 | 20.3 % of GpH7-A5/GpH7-B3/GpL16-k0 (=100) | 41 % of GpH7-A5/GpH7-B3/GpL16-k0 (=100) | GpH7-A5/GpH7-B3 variant D270_11K/GpL16-k0 (antibody, human IgG1, kappa, Heterodimerized anti-glypican-3 IgG1 with the alteration in only one H chain; also called He Ab) heavy 1: not shown heavy 2: not shown light: DIVMTQSPLSLPVTPGEPASISCQASESLVHSNRNTYLHWYLQKPGQSPQLLIYKVSNRFSGVPDRFSGSGSGTDFTLKISRVEAEDVGVYYCSQNTHVPPTFGQGTKVEIERTVAAPSVFIFPPSDEQLKSGTASVVCLLNNFYPREAKVQWKVDNALQSGNSQESVTEQDSKDSTYSLSSTLTLSKADYEKHKVYACEVTHQGLSSPVTKSFNRGEC
1.21 | 42.9 % of GpH7-A5/GpH7-B3/GpL16-k0 (=100) | 52.1 % of GpH7-A5/GpH7-B3/GpL16-k0 (=100) | GpH7-A5/GpH7-B3 variant E269_08L/GpL16-k0 (antibody, human IgG1, kappa, Heterodimerized anti-glypican-3 IgG1 with the alteration in only one H chain; also called He Ab) heavy 1: not shown heavy 2: not shown light: DIVMTQSPLSLPVTPGEPASISCQASESLVHSNRNTYLHWYLQKPGQSPQLLIYKVSNRFSGVPDRFSGSGSGTDFTLKISRVEAEDVGVYYCSQNTHVPPTFGQGTKVEIERTVAAPSVFIFPPSDEQLKSGTASVVCLLNNFYPREAKVQWKVDNALQSGNSQESVTEQDSKDSTYSLSSTLTLSKADYEKHKVYACEVTHQGLSSPVTKSFNRGEC
1.68 | 41.5 % of GpH7-A5/GpH7-B3/GpL16-k0 (=100) | 69.6 % of GpH7-A5/GpH7-B3/GpL16-k0 (=100) | GpH7-A5/GpH7-B3 variant D270_07I/GpL16-k0 (antibody, human IgG1, kappa, Heterodimerized anti-glypican-3 IgG1 with the alteration in only one H chain; also called He Ab) heavy 1: not shown heavy 2: not shown light: DIVMTQSPLSLPVTPGEPASISCQASESLVHSNRNTYLHWYLQKPGQSPQLLIYKVSNRFSGVPDRFSGSGSGTDFTLKISRVEAEDVGVYYCSQNTHVPPTFGQGTKVEIERTVAAPSVFIFPPSDEQLKSGTASVVCLLNNFYPREAKVQWKVDNALQSGNSQESVTEQDSKDSTYSLSSTLTLSKADYEKHKVYACEVTHQGLSSPVTKSFNRGEC
1.38 | 48.2 % of GpH7-A5/GpH7-B3/GpL16-k0 (=100) | 66.3 % of GpH7-A5/GpH7-B3/GpL16-k0 (=100) | GpH7-A5/GpH7-B3 variant D270_06M/GpL16-k0 (antibody, human IgG1, kappa, Heterodimerized anti-glypican-3 IgG1 with the alteration in only one H chain; also called He Ab) heavy 1: not shown heavy 2: not shown light: DIVMTQSPLSLPVTPGEPASISCQASESLVHSNRNTYLHWYLQKPGQSPQLLIYKVSNRFSGVPDRFSGSGSGTDFTLKISRVEAEDVGVYYCSQNTHVPPTFGQGTKVEIERTVAAPSVFIFPPSDEQLKSGTASVVCLLNNFYPREAKVQWKVDNALQSGNSQESVTEQDSKDSTYSLSSTLTLSKADYEKHKVYACEVTHQGLSSPVTKSFNRGEC

From US20150344570A1 (published 2015)
